Results reported in the nanobody polyreactivity screen of Harvey et al. (2022).

Assay: yeast display, Sf9 membrane polyspecificity reagent, FACS + sequencing; frameworks hold sequencing errors
Procedure, shortened: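 A synthetic nanobody library was expressed on Saccharomyces cerevisiae BJ5465 by galactose induction for 36–48 hours. The library was stained for 1 hour at 4 °C with 10% biotinylated, detergent-solubilized Sf9 membrane reagent and enriched with streptavidin microbeads before FACS. Low and high (top ~1%) gates were set on anti-HA fluorescence for expression and streptavidin fluorescence for reagent binding, and each polyreactivity label reflects the gate of origin.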

Sequence | polyreactivity (PSR sort gate)
QVQLVESGGGLVQAGGSLRLSCAASGFTFDYNGLGWYRQAPGKERELVAGIRWSGGSTYYADSVKGRFTISRDNAKNTVYLQMNSLKPEDTAVYYCATSQYGYRSWPGLYYWGQGTQVTVSS | low polyreactivity
QVQLVESGGGLVQAGGSLRLSCAASGSISETNAMGWYRQAPGKERELVAAISGSGGSTYADSVKGRFTISRDNAKNTVYLQMNSLKPEDTAVYYCARDRYYTREWYWYRHDHWGQGTQVTVSS | low polyreactivity
QVQIVESGGGLVQAGGSLRLSCAASGNTFPAYAMGWYRQAPGKERELVATISWSTGSTNYADSVKGRFTISRDNANNTVYLQMNSLKPEDTAVYYCNKRYPTDQMYYWGQGTLVTVSS | low polyreactivity
QVQLVESGGGLVQAGGSLRLSCAASGNTFIEYAMGWYRQAPGKERELVAAINWNGGSTYYADSVKGRFTISRDNAKNTVYLQMNSLKPEDTAVYYCYADYPQYWDYRTSDYTYGTYNYWGQGTQVTVSS | low polyreactivity
QVQLVESGGGLVQAGGSLRLSCAASGFTFGGNDMGWYRQAPGKERELVAAISWSGGSTYYADSVKGRFTISRDNAKNTVYLLMNSLKPEDTAVYYCAADYYYGKVHFDYWGQGTQVTVSS | low polyreactivity
QVQLQESGGGLEQAGGSLRLSCAASGYISDIGTMGWYRQAPGKEREFVATIVVGSTTNYADSVKGRFTISRDNAKNTVYLKPESGRYRGVLLRGWLLAVGKFTYWGQGTQETVSS | low polyreactivity
QVQLVESGGGLVQAGGSLRLSCAASGFTFGANVMGWYRQAPGKERQLVAGITWSGDSTYYADSVKGRFTISRDNAKNTVYLQMNSLKPEDTAVYYCAADVYDGEYILDYDYWGQGTQVTVSS | low polyreactivity
QVQLVESGGGLVQAGGSLRLSCAASGSTFDYYAMGWYRQAPAKERELVAVISRSGGSTYYADSVKGRFTISRDNAKNTVYLQMNSLKPEDTAVYYCAKSRPSKYDYWGQGTQVTVSS | high polyreactivity
QVQLVESGGGLVQAGGSLRLSCAACGRTFFPYAIGWYRQAPGKERELVAAITTGDITNYADSVKGRFTISRDNAKNTVYLQMNSLKPEDTAVNYCAARGYASWSYGGYPLKLDYWGQGTQVTVSS | low polyreactivity
QVQLVESGGGLVHAGGSLRLSCAASGSTFLPNAMVWYRQSHGKERELVAAISYRGGGTFYADSVKGRFTISRDNAKNTVYLQMNSLKPEDTAVYYCAADWSWFDNFDYWGQGTQVTVSS | low polyreactivity
QVQLVESGGGLVQAGGSLRLSCADSGFIFVDYVMGWYRQSPGKERELVASISASGGTTYYADSVKGRLTISLDNAKNTVYLQMNSLKPEDTAVYYCNARWSPVNLRYGREGDYWGQGTQVTVSS | high polyreactivity
QVQLVESGGGLVQAGGSLRLSWAASGSTFDGYAMGWYRQAPGKERELVAAITRSGGSTYYADSVKGRFTISRDNAKITVYRQINSLKPEDTEVYYSNKYGYKGCVGYDYWGKGTQVTVSS | high polyreactivity
QVQLVESRGVLVQAGGSLRLSCAASGFTFYHYAMGWYRQAPGKDRELVAALDNGGSTYADSVKGRFTISRDNATNTVSLQRNSLKPEDTAVYYCAAVYLRYINGFYFWGQGTQVTVSS | low polyreactivity
QVQLVESGGGLVQAGGSLRLSCAASGLTFQENGMGGYRQAPGKERELVASITTIGGSTYYADSVKGRFTISRDNAKNTVYLQMKSLKPEDTAVYYCAALSPIYATYGHDYWGQGTQVTVSS | low polyreactivity
QVQLVESVGGLVQAGGSLRLSCAASGNTFSLYAMGWYSQAPGKERELVAAITWITGSTDYADSVKGRFTISRDNAKNTVYLQMNSLKPEDTAVYYCAADGDFSWFYSYETGWIEYDYCGQGTQVTVSS | low polyreactivity
QVQLVESGGGLVQAGGSLRLSCAASGRIFYDYDMGWYRQAPGKERELVAAISYGGGTTYYADSVKGRFTISRDNAKNTVYLQMTSLKPEDTAVYYCAAEYASGSYDEYDYWGQGTQVTVSS | low polyreactivity
QVQLVDSGGGLVQAGGSLRLICAASGRSFYNYAMGRYSEAPGKERELVAAIAGSGGSTYYADSEKGRVTISRDNAKNTGYLQMNSLKPEDTAVDYCSTSGPQYYSRNFDDWGQGTQVTVSS | low polyreactivity
QVQLVESGGGLVQAGGSLRLSCAASGRTCYDNTMGWSRQAPGTEREFVADITGSGGSTHYADSVKGRFTISRDNAKNTVYLQLNSLKPEDTAVYYCAADYRYNRGITSNKDYDYWGQGTQVTVSS | low polyreactivity
QVQLVESGGGLVQAGGSLRLSCAASGRIFPTYAMGWYRQAPGKERELVAAITWRGGRTYYADSEKGRFTISRDYAKNTVYLQMNSLKPEDTAVYYCAAGWLTRSYEYDYWGQGTQVTVSS | high polyreactivity
QVQLVESGGGLVQAGGSLRLSCAASGSTFFEYTMGWYRQAPGKEREFVADIRGRDGSTSYADSVKGRFTISRDNAKNTVYLQMNSLKPEDTAVYYCAADVSDWWSFGNDSWGQGTQVTVSS | low polyreactivity
QVQLVESGGGLVQAGGRLRLSCAASGSIFTPNAMGWYRQAPGKEMELVAAISSSSDRTYYADSVKGRFTISRDNAMITVYLQMNSLNPEDTAVYYCAAETNTWYLFDFWGQGTQVTVSS | high polyreactivity
QVQLVESGGGLVQAGGSLRLSCAASGSIFWYNSMGWYRQAPGKERELVAAISYRGGRTYYADSVKGRFTISRDNAKNTVYLQMNSLKPEDTAVYYCNAPRYLGGGQDALGDYWGQGTQVTVSS | high polyreactivity

Sequence | polyreactivity (PSR sort gate)
QVQLVESGGGLVQAVGSLRLSCAASASIFRNNAMGWYRQAPGKERELVASISSSGDNTNYADSVKGRFTISRDNAKNTVYLQMNSLKPEDTAVYYCAAANKGPDQADYHYDQWGQGTQVTVSS | low polyreactivity
QVQLVESVGDLVQEGGSLRLSCAASGRIFYWYAMGWYRQAPGKETELVAAITSGGSTYYADSVKGRFTISRDNAKNTVYLQMNSLKPEDTAVYYCAKPFSSNSCSHGYWGQGTQVTVSS | low polyreactivity
QVQLVESAVGLVQAGGSHRLSCAASAGTFYFYAMGWYRQAPGKERELVATITRGGSTYYADSVKGRFTISRDNAKNTVYLQMNSLNPEDTAVYYCAARQYSRRRSPVSTWYYYWGQGTQVTVSS | high polyreactivity
QVQLVESGGGLVQAGGSLRLSCAASRPIFYANAKGGYRQAPGKEREFVATIRRGTSTNYADSVKGRFTISRDNAKNTVYLQMNSLKPEDTAVYYCAVVSNGRRERYYYWGQGTQVTVSS | low polyreactivity
QVQLVESGGGLVQAGGSLRLSCAPSGIIFRGNAMGWYRQAPGKEREFVAAISLRGSRTYYADSVKGRFTISRDNAKNTVYLQMNSLKQEDTAVYYCAATRPYRYNYWGQGTQVTVSS | high polyreactivity
QVQLVESGGGLVQAGGSLRLSCAASGLTFEDYAMGWNRQEPGKEREFVAAISTSGGRTYYADSVKGRFTISRDNAKNTVYLQMNSLKPEDTAVYYCAAGGWYGYVYRFYYWGQGTQVTVSS | high polyreactivity
QVQLVESGGGLVQAGGSLRLSCAASGSTFVNNAMGWYRQAPGKERELGASITVGGSTYYADSVKGRFTISRDNAKNTVYLQMNSLKPEDTAVYYCAAADYRFWSRYDYWGQGTQVTVSS | low polyreactivity
QVQLVESGGGLVQAGGSLRLSCAASGITFDDYDMGWYRQAPGKERELVAAISWSGGSTYYADSVKGRFTISRDNAKTTVYLQMNSLKPEDTAVYYCAAEVIWWVREYYYWGQGTQVTVSS | low polyreactivity
QVQLVESGGGLFQAGGSLRLSCAASGITLYLYVMGWYRQAPGIEREFVAAIRWSGGSTYYADSVKGRFTISRDNAKYTVYLLMNSLKPEDTAVYYCAVTYVGHVYEYYYWGQGTQVTVSS | low polyreactivity
QVQLVESGGGLVQAGGSLRLSCAASGGIFGFNAMGWYRPAPGKERELVADISDGVRTNYADSVKGRFTISRDNAKNTVYLQMNSLKPEDTAVYYCATDGLFLAWAPLGALAFDYWGQGTQVTVSS | low polyreactivity
QVQLVESGGGLVQAGGSLRLSCAASGFTFPYYAMGWYRPAPGKERELVAAISWIGDSTYYADSVKGRFTISRDNAKNTVYLQMNSLKPEDTAVYYCAAGYKWSIPNRDYDYWGQGTQVTVSS | low polyreactivity
QVQLVESGGGLVQAGGSLRLSCAASGSIFESNAMGWYRQAPGKEREFVAAIDWGDGSTSYADSVKGRFTISRDNAKNTVYLQMNSLKPEDTAVYYCAARSVFDLVYYNLIFDYWGQGTQVTVSS | high polyreactivity
QVQLVESGGGLVQAGGSLRLSCAASGFTFTAYAMGWYRQAPGKERELVAAISNRGGRTYYADSVKGRFTFSRDNAKNTVYLQMNSLKPEDTAVYYCAAGYSYAQYSYPFLSFAFGYWGQGTQVTVSS | high polyreactivity
QVQLVESGGGLVQAGGSLRLSCAASGRIFSSNAMGWYRQAPGTERELVAAITSGGSTYADSVKGRFTISRDNAKNTVYLQMNSLKPEDTAVYYCATRQGWYGWYGYWGQGTQVTVSS | high polyreactivity
QVQLVESGGGLVQAGGSLRLSCAASGIIFRGNAMGWYRQAPGKERELVAAISRSGRTNYADSVKGRFTISRDNAKNTVYLQMNSLKPEDTAVYYCAVDKRYGRVVGRDYDYWGQGTQVTVSS | high polyreactivity
QVQLVESGGGLVQAGGSLRLSCAASGFTFQINTMGWYRQAPGKERELVAAINYSGGSTYYADSVKGRFTISRDNAKNTDYLQMNSLKPEDTAVYYCATDHYRNPWRWYRYGYWGQGTQVTVSS | low polyreactivity
QVQLVESGGGLVQAGGSLRLSCAASGFTFYYYAMGWYRQAPGKERELVAAISRSGGSTYYADSVKGRFTISRDNAKNTVYLQMNSLKPEDTAVYYCAARRLVGAERPGYDYWGQGTQVTVSS | high polyreactivity
QVQLEESGGGLVQAGGSLRLSCAASGRIFGSYAMGWYRQAAGNERELVAAITRSGGSTYYADSVKGRFTISRDNAKNTVYLQMNSLTPEDTAVYYCAAYFRFSGSAKFGYWGQGTQVTVSS | high polyreactivity
QVQLVESGGGIVQAGGSLPLICAASGFTFDWYALGWYRQAPGKERELVAAITTSGGTTYYADSVKGRFTMSRDNAKITVYLQMNSLKPEDTAVFYCAADADTDVFYILQEYDYWGQGTQVTVSS | low polyreactivity
QVQLVESGGGLVQAGGSLRLSCAASGIIFSYYAMGWYRQAPGKERELVAAISRSGARTSYADSVKGRFTISRDNAKNTVYLQMNSLKPEDTAVYYCAARTQGTRYRGEYWGQGTQVTVSS | high polyreactivity
QVQLVESGGGLVQAGGSIRLSCAASGRIFARYAMGWYRQAPGTERELVASITVSGDNTYYADSVKGRFTISRDNAKKTVYLQMNSLKPEDTAVYYCAVRAVVLFGFFEYDYWGQGTQVTVSS | low polyreactivity
